Laboratory results from PMC3129213.

What was measured:
CRD from SRCL = CRD from SRCL (UniProt Q5KU26); test: radioligand binding
[1] = target: Lactoferrin from human neutrophils (human); test: SPR

Sequence of UniProt Q5KU26 (Q5KU26 whole entry): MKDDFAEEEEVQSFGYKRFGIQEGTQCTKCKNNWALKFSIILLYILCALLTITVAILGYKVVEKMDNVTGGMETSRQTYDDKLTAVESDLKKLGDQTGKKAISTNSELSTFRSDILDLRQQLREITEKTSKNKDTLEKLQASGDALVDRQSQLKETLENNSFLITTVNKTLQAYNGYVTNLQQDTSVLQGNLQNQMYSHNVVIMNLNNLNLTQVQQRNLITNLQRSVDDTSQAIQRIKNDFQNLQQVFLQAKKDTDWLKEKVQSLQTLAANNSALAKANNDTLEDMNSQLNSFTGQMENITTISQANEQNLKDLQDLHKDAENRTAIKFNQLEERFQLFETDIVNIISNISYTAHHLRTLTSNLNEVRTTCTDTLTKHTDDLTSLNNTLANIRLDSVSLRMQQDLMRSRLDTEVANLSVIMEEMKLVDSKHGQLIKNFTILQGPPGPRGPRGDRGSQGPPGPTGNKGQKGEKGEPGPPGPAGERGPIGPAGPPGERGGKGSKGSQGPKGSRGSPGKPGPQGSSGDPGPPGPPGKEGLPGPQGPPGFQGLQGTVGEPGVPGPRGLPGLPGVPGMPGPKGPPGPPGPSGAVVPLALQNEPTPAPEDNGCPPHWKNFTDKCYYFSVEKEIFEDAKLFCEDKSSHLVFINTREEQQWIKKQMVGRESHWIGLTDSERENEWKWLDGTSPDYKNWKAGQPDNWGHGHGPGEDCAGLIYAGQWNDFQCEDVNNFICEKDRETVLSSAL

Row | Substance | Ki (CRD from SRCL) [µM] | Kd [1] [µM]
1 | Lactoferrin from human neutrophils (natural protein) | 6.1 | –
2 | CRD from SRCL (from UniProt Q5KU26 1-742) (domain or fragment) | – | 4.7
